The numbers were not newly measured in article PMC3726680, which cites them from elsewhere.

The data set addresses HER2 (Homo sapiens) (UniProt P04626).

With trastuzumab, the Kd was 0.1 nM.

A word on the Kd: it is the concentration at which binding is half-saturated.
